Measured values: paper PMC4341974 (Science translational medicine, 2014)
Substitutions are numbered along the chain they refer to. Like-named read-outs stand apart in the source and are kept apart here.

B1: 37E1 single-chain antibody fragment (scFv) on yeast (scFv, V domains shown)
VH: EVQLVESGGGLVQPGGSLNLSCAASGFVFSRYWMSWVRQAPGKGLEWIGEINPDSSTINYTSSLKDKFIISRDNAKNTLYLQMNKVRSEDTALYYCACLITTEDYWGQGTSVTVSS
VL: QIVLTQSPSSMYASLGERVTIPCKASQDINSYLSWFQQKPGKSPKTLIYRANRLVDGVPSRFSGSGSGQDYSLTISSLEYEDMGIYYCLQYDEFPYTFGGGTKLEIK
B2: B5 single-chain antibody fragment (scFv) on yeast (scFv, V domains shown)
VH: B1 VH with A24V
VL: B1 VL with R50Y
B3: B5 intact IgG (antibody, V domains shown)
VH: B1 VH with A24V
VL: B1 VL with R50Y

How the values were obtained:
[1] = biological target: integrin αvβ8 on β8-expressing HT1080 cells (wild-type β8) (human (endogenous in HT1080) | human) (UniProt P06756); assay: flow cytometry on cells
[2] = biological target: T1, integrin αvβ8 (construct of the affinity and cross-competition measurements, not told) (Homo sapiens, UniProt P06756;P26012); assay: flow cytometry on cells
[3] = biological target: T1, integrin αvβ8 (construct of the …)

T1 sequence (P06756 31-1048, chain 1 of 2): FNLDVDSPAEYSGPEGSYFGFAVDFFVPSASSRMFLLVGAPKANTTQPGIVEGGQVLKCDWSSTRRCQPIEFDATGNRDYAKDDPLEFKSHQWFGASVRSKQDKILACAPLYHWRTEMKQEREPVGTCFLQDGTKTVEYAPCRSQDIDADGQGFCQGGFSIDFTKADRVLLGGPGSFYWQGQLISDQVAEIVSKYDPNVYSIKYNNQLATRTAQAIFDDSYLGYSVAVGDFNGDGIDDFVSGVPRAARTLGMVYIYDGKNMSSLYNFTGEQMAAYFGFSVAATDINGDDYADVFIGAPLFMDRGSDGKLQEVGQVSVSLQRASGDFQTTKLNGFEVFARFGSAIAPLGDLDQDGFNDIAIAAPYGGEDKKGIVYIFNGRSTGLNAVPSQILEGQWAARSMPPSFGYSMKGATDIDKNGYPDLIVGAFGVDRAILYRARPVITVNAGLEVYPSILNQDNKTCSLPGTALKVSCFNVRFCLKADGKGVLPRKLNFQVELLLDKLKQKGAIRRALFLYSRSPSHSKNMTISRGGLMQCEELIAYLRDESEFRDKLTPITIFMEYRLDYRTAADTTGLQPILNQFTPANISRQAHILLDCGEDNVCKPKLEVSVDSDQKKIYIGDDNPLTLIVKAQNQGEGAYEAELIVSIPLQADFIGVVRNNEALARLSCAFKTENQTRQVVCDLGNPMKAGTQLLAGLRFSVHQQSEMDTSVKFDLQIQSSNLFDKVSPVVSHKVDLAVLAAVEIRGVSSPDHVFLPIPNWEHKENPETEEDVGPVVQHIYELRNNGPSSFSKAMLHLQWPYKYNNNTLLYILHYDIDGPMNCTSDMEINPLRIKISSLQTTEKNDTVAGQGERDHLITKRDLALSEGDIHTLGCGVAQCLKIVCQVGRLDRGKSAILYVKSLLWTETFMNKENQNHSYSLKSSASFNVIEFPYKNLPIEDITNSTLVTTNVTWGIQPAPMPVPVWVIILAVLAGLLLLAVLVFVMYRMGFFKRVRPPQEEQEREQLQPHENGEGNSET
T1 sequence (P26012 43-769, chain 2 of 2): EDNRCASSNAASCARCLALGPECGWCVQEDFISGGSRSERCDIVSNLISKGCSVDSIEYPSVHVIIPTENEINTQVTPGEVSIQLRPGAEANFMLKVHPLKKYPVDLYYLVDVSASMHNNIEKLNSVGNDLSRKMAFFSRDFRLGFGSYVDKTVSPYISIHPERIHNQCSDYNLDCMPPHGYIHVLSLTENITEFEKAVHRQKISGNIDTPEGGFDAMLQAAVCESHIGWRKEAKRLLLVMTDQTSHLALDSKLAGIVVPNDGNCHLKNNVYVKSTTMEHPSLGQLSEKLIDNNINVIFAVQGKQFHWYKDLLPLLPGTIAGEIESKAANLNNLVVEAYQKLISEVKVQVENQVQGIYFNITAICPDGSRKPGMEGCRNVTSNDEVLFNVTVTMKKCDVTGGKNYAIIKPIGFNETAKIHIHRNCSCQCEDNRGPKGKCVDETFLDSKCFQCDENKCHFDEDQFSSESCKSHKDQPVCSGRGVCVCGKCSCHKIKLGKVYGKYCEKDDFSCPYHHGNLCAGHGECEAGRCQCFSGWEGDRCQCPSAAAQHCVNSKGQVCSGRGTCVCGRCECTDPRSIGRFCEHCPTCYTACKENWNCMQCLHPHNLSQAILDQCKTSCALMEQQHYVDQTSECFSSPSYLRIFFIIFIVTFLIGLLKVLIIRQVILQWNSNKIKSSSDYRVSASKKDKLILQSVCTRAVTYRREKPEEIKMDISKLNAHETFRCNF
integrin αvβ8 on β8-expressing HT1080 cells (wild-type β8) (human (endogenous in HT1080) | human), sequence (P06756 31-1048, chain 1 of 2): as the sequence (P06756 31-1048, chain 1 of 2) above
integrin αvβ8 on β8-expressing HT1080 cells (wild-type β8) (human (endogenous in HT1080) | human), sequence (P26012 43-769, chain 2 of 2, further chain): as the sequence (P26012 43-769, chain 2 of 2) above

Row | Molecule | Kd [2] | other results
1 | latency-associated peptide (from UniProt P01137 30-278) (ligand) | – | percent decrease of B5 binding to β8-expressing HT1080 cells [1]: 29%
2 | B1 | 118 nM | –
3 | B2 | 15.4 nM | –
4 | B3 | – | Kd [3]: 0.54 nM
